Measurements as given in US8580497B2, “Methods for detection of the oncogenic T1796A B-Raf mutation” (The Wellcome Trust, priority 2001, dated 2013).
Blank lines part the entries; values can stand above or below the compound they belong to.

Assays:
ERK in WM266.4 cells = experiment: ERK activity, Western blot with ppERK antibody; type: cell-based, human; settings: compound at 10 μM
Procedure: FIG. 3B. Inhibition of ERK in melanoma cell lines using pharmacological reagents. WM266.4 or A375P cells were treated with 10 μM U0126, 10 μM BAY 43-9006 or DMSO as a control. Equivalent amounts of cellular proteins were resolved on SDS-gels and the levels of active ERK were determined using the ppERK antibody.
FIG. 6. Ablation of BRAF, but not CRAF blocks ERK activity in melanoma cells. WM-266.4 or Colo 829 cells were treated with a BRAF specific siRNA probe (BRAF), or the scrambled control (sBRAF), or a CRAF specific probe (CRAF), or its scrambled control (sCRAF), or oligofectamine (oligo) or left untreated (control) as indicated. The cells were incubated for the times indicated, and the Colo 829 cells were treated for 24 hours. The levels of ERK activity in equivalent amounts of cell extract was determined by Western blotting with the ppERK antibody.
In order to validate BRAF as a target in cancer, it is first tested whether the growth of cells that express activated, mutant forms of BRAF required the RAF-MEK-ERK signaling pathway for growth. To this end, melanoma and colorectal cell lines that harbour mutations in the BRAF gene are treated with pharmacological agents that block signaling through this pathway. Two compounds are tested. One is the compound U0126, which is a MEK inhibitor and which therefore uncouples RAF-ERK signaling in cells (Sebolt-Leopold et al., 1999). […]

ERK in WM-266-4/WM-115 = settings: WM-266-4/WM-115, melanoma, B-Raf V599D
Excerpt: (§1) The second approach is to examine the effects of the compound U0126, an inhibitor of MEK1/2, the only known substrates for B-Raf.

SK-MEL-28 = settings: SK-MEL-28, melanoma, B-Raf V599E
Excerpt: as §1

ERK in Mawi = settings: colorectal, Ras wt, B-Raf V599E
Excerpt: as §1

ERK in SK-MEL-28 = settings: SK-MEL-28, melanoma, B-Raf V599E
Excerpt: as §1

WM-266-4/WM-115 = settings: WM-266-4/WM-115, melanoma, B-Raf V599D
Excerpt: as §1

cellular Ras (human) = experiment: cell-based or functional assay

Compound: CNC(=O)c1cc(Oc2ccc(NC(=O)Nc3ccc(Cl)c(C(F)(F)F)c3)cc2)ccn1 [BAY 43-9006]
ERK activity (ppERK Western blot) (ERK in WM266.4 cells): strongly suppressed

Compound: N#CC(=C(/N)Sc1ccccc1N)/C(C#N)=C(\N)Sc1ccccc1N [U0126]
UO/ ERK-inhib (ERK in WM-266-4/WM-115): >90%
U0 inhibit S (SK-MEL-28): 98%
UO/ ERK-inhib (ERK in Mawi): >90%
UO/ ERK-inhib (ERK in SK-MEL-28): >90%
U0 inhibit S (WM-266-4/WM-115): >99%
ERK activity (ppERK Western blot) (ERK in WM266.4 cells): strongly suppressed

Compound: G463V B-Raf (myc-epitope tagged)
^V12Ras stimulated kinase activity of B-Raf (immunoprecipitation kinase cascade assay, GST-MEK, GST-ERK and MBP as sequential substrates) (oncogenic Ras (V12Ras)): All five mutants are stimulated by oncogenic Ras (^V12Ras). However, the fold activation for each of the mutants is reduced compared with wild-type B-Raf

Compound: G468A B-Raf (myc-epitope tagged)
^V12Ras stimulated kinase activity of B-Raf (immunoprecipitation kinase cascade assay, GST-MEK, GST-ERK and MBP as sequential substrates) (oncogenic Ras (V12Ras)): All five mutants are stimulated by oncogenic Ras (^V12Ras). However, the fold activation for each of the mutants is reduced compared with wild-type B-Raf

Compound: G595R B-Raf (myc-epitope tagged)
^V12Ras stimulated kinase activity of B-Raf (immunoprecipitation kinase cascade assay, GST-MEK, GST-ERK and MBP as sequential substrates) (oncogenic Ras (V12Ras)): ^G595RB-Raf is also stimulated by ^V12Ras, but the activation was very weak, probably due to the low starting levels

Compound: L596V B-Raf (myc-epitope tagged)
^V12Ras stimulated kinase activity of B-Raf (immunoprecipitation kinase cascade assay, GST-MEK, GST-ERK and MBP as sequential substrates) (oncogenic Ras (V12Ras)): All five mutants are stimulated by oncogenic Ras (^V12Ras). However, the fold activation for each of the mutants is reduced compared with wild-type B-Raf

Compound: V599E B-Raf (myc-epitope tagged)
^V12Ras stimulated kinase activity of B-Raf (immunoprecipitation kinase cascade assay, GST-MEK, GST-ERK and MBP as sequential substrates) (oncogenic Ras (V12Ras)): the fold activation for each of the mutants is reduced compared with wild-type B-Raf (See FIG. 1A, B) and is particularly small in the case of ^V599EB-Raf

Y13-259 S-phase inhibition (percentage of cells that do not incorporate BrdU) after micro-injection; A2058 melanoma cells, Ras status blank, B-Raf V599E (cellular Ras (human)): 0%
Y13-259 S-phase inhibition (percentage of cells that do not incorporate BrdU) after micro-injection; CaCO2 colorectal cells, Ras wt, B-Raf wt (cellular Ras (human)): 60%
Y13-259 S-phase inhibition (percentage of cells that do not incorporate BrdU) after micro-injection; DLD1 colorectal cells, Ras K13Asp/wt, B-Raf wt (cellular Ras (human)): 40%
Y13-259 S-phase inhibition (percentage of cells that do not incorporate BrdU) after micro-injection; HCT-116 colorectal cells, Ras K13 Asp, B-Raf wt (cellular Ras (human)): 95%
Y13-259 S-phase inhibition (percentage of cells that do not incorporate BrdU) after micro-injection; HMV11-Riken melanoma cells, Ras status blank, B-Raf wt (cellular Ras (human)): 100%
Y13-259 S-phase inhibition (percentage of cells that do not incorporate BrdU) after micro-injection; HT29 colorectal cells, Ras wt, B-Raf V599E (cellular Ras (human)): 15%
Y13-259 S-phase inhibition (percentage of cells that do not incorporate BrdU) after micro-injection; JW2 colorectal cells, Ras K12, B-Raf wt (cellular Ras (human)): 79%
Y13-259 S-phase inhibition (percentage of cells that do not incorporate BrdU) after micro-injection; LS174T colorectal cells, Ras K12Asp/wt, B-Raf wt (cellular Ras (human)): 84%
Y13-259 S-phase inhibition (percentage of cells that do not incorporate BrdU) after micro-injection; LS411N colorectal cells, Ras status blank, B-Raf V599E (first value) (cellular Ras (human)): 0%
Y13-259 S-phase inhibition (percentage of cells that do not incorporate BrdU) after micro-injection; LS411N colorectal cells, Ras status blank, B-Raf V599E (second value) (cellular Ras (human)): 0%
Y13-259 S-phase inhibition (percentage of cells that do not incorporate BrdU) after micro-injection; Malme melanoma cells, Ras status blank, B-Raf V599E (cellular Ras (human)): 0%
Y13-259 S-phase inhibition (percentage of cells that do not incorporate BrdU) after micro-injection; Mawi colorectal cells, Ras wt, B-Raf V599E (cellular Ras (human)): 5%
Y13-259 S-phase inhibition (percentage of cells that do not incorporate BrdU) after micro-injection; NCI-H2087 NSCLC cell line pair, Ras onc, B-Raf L596V (cellular Ras (human)): 77%
Y13-259 S-phase inhibition (percentage of cells that do not incorporate BrdU) after micro-injection; SK-MEL-28 melanoma cells, Ras b, B-Raf V599E (cellular Ras (human)): 4%
Y13-259 S-phase inhibition (percentage of cells that do not incorporate BrdU) after micro-injection; SK-Mel2 melanoma cells, Ras status blank, B-Raf wt (cellular Ras (human)): 70%
Y13-259 S-phase inhibition (percentage of cells that do not incorporate BrdU) after micro-injection; SW480 colorectal cells, Ras K12, B-Raf wt (cellular Ras (human)): 57%
Y13-259 S-phase inhibition (percentage of cells that do not incorporate BrdU) after micro-injection; SW620 colorectal cells, Ras onc, B-Raf wt (cellular Ras (human)): 92%
Y13-259 S-phase inhibition (percentage of cells that do not incorporate BrdU) after micro-injection; WM-266-4/WM-115 melanoma cells, Ras b, B-Raf V599D (cellular Ras (human)): 10%
Y13-259 S-phase inhibition (percentage of cells that do not incorporate BrdU) after micro-injection; colo205 colorectal cells, Ras wt, B-Raf V599E (cellular Ras (human)): 3%
Y13-259 S-phase inhibition (percentage of cells that do not incorporate BrdU) after micro-injection; colo741 colorectal cells, Ras status blank, B-Raf V599E (cellular Ras (human)): 0%
Compound: monoclonal antibody Y13-259
